The values that follow come from US6951919 (MOCHIDA PHARMACEUTICAL, dated 2005).

Common to all, as to test: cell-based or functional assay
In assay [1] the target is Fas expressed endogenously on mouse primary hepatocytes (mouse), P25446.
For assay [2], the target named is T1, Fas on mouse W4 cells (mouse WR19L cell transformants that overexpress Fas) (UniProt P25446 22-327, limits assumed).
T1 sequence (looked up): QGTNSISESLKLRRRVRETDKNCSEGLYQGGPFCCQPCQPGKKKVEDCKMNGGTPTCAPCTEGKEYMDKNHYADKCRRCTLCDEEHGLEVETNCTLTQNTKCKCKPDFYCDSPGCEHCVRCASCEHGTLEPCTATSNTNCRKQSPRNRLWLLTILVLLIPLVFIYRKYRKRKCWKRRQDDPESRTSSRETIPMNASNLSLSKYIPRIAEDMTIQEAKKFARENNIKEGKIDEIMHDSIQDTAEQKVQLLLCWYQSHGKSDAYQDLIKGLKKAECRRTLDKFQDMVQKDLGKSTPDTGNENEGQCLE

For assay [3], the target named is T2, Fas expressed endogenously on human Jurkat cells (human, UniProt P25445 26-335).
T2 sequence (looked up): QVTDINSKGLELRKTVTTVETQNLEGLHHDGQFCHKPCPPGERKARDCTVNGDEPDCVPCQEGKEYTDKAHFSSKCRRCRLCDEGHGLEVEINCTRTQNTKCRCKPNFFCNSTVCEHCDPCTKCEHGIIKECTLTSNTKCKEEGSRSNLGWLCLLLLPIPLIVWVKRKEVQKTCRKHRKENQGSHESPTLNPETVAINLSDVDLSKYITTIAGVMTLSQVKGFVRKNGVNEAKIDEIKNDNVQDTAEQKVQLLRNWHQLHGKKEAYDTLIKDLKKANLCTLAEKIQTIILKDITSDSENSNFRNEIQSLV

B1: human soluble Fas ligand, P48023 130-281 (ligand)
chain: QIGHPSPPPEKKELRKVAHLTGKSNSRSMPLEWEDTYGIVLLSGVKYKKGGLVINETGLYFVYSKVYFRGQSCNNLPLSHKVYMRNSKYPQDLVMMEGKMMSYCTTGQMWARSSYLGAVFNLTSADHLYVNVSELSLVNFEESQTFFGLYKL
Take B1: the concentration of soluble FasL that blocks half of the cytotoxic activity of membrane-bound FasL (D4 mutant) on mouse hepatocytes at E/T 2.0, GOT release in assay [1] was determined as 0.4 µg/mL.

B2: D4 deletion mutant of human FasL (amino acids 8-69 and 111-133 deleted) (ligand)
chain: MQQPFNYPLKKRGNHSTGLCLLVMFFMVLVALVGLGLGMFQLFHLQKEPSPPPEKKELRKVAHLTGKSNSRSMPLEWEDTYGIVLLSGVKYKKGGLVINETGLYFVYSKVYFRGQSCNNLPLSHKVYMRNSKYPQDLVMMEGKMMSYCTTGQMWARSSYLGAVFNLTSADHLYVNVSELSLVNFEESQTFFGLYKL
For the molecule B2, the “specific killing of W4 cells at an E/T ratio of 5.0, 51Cr-release” value in assay [2] was about 50%. In addition, the “specific killing of Jurkat cells at an E/T ratio of 3.0, 51Cr-release” value in assay [3] was at least 20%.
